Assay results: PMC4909209

What was measured:
[1] = target: ubiquitin tagged Ac-AChBP (Aplysia californica acetylcholine binding protein) (Aplysia californica); assay: radioligand binding
[2] = target: de-tagged Ls-AChBP (Lymnaea stagnalis acetylcholine binding protein) (Lymnaea stagnalis) (UniProt P58154); assay: radioligand binding

| Substance | Ki [1] [nM] | Ki [2] [nM] |
| --- | --- | --- |
| alpha-conotoxin LsIA (peptide) | 11 | 700 |
| alpha-conotoxin ImI (from UniProt P50983 5-17) (peptide) | 3 | > 10000 |
